The source of these data is US20210395340A1 (KINDRED BIOSCIENCES, published 2021).

Assay [1] has as its target T1, canine IL13 with C-terminal poly-His tag (produced in 293 cells) (canine, UniProt Q9N0W9 19-131).
T1 sequence: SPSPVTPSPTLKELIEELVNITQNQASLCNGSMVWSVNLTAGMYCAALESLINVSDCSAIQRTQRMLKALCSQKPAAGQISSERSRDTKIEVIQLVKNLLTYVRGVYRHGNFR
The assay is described as follows: BLI (Octet).

Assay [2] addresses T2, canine IL4 (Sino Biological Inc, Cat #70021-DNAE-5) (canine, UniProt O77762 25-132, limits assumed).
T2 sequence (looked up): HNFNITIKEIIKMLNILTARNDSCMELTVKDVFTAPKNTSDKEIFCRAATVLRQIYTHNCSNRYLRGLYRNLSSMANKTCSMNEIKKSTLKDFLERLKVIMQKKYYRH
The experiment in a line: cell-based or functional assay.

B1: canine IL13RECD-IL4RECD-IgGB Fc (Fc fusion)
chain: TETQPPVTNLSVSVENLCTVIWTWDPPEGASPNCTLRYFSHFDNKQDKKIAPETHRSKEVPLNERICLQVGSQCSTNESDNPSILVEKCTPPPEGDPESAVTELQCVWHNLSYMKCTWLPGRNTSPDTNYTLYYWHSSLGKILQCEDIYREGQHIGCSFALTNLKDSSFEQHSVQIVVKDNAGKIRPSFNIVPLTSHVKPDPPHIKRLFFQNGNLYVQWKNPQNFYSRCLSYQVEVNNSQTETNDIFYVEEAKCQNSEFEGNLEGTICFMVPGVLPDTLNTVRIRVRTNKLCYEDDKLWSNWSQAMSIGENTDPTGGGSGSGSVKVLHEPSCFSDYISTSVCQWKMDHPTNCSAELRLSYQLDFMGSENHTCVPENREDSVCVCSMPIDDAVEADVYQLDLWAGQQLLWSGSFQPSKHVKPRTPGNLTVHPNISHTWLLMWTNPYPTENHLHSELTYMVNVSNDNDPEDFKVYNVTYMGPTLRLAASTLKSGASYSARVRAWAQTYNSTWSDWSPSTTWLNYYEPKRENGRVPRPPDCPKCPAPEMLGGPSVFIFPPKPKDTLLIARTPEVTCVVVDLDPEDPEVQISWFVDGKQMQTAKTQPREEQFNGTYRVVSVLPIGHQDWLKGKQFTCKVNNKALPSPIERTISKARGQAHQPSVYVLPPSREELSKNTVSLTCLIKDFFPPDIDVEWQSNGQQEPESKYRTTPPQLDEDGSYFLYSKLSVDKSRWQRGDTFICAVMHEALHNHYTQESLSHSPGK
notes: also called canine IL13RECD-IL4RECD-Fc; IL13R ECD/IL4R ECD contiguous polypeptide
For B1, the binding result in assay [1] is given as “binds”.

B2: canine IL4RECD-IL13RECD-IgGB Fc (Fc fusion)
chain: SGSVKVLHEPSCFSDYISTSVCQWKMDHPTNCSAELRLSYQLDFMGSENHTCVPENREDSVCVCSMPIDDAVEADVYQLDLWAGQQLLWSGSFQPSKHVKPRTPGNLTVHPNISHTWLLMWTNPYPTENHLHSELTYMVNVSNDNDPEDFKVYNVTYMGPTLRLAASTLKSGASYSARVRAWAQTYNSTWSDWSPSTTWLNYYEPGGGSGTETQPPVTNLSVSVENLCTVIWTWDPPEGASPNCTLRYFSHFDNKQDKKIAPETHRSKEVPLNERICLQVGSQCSTNESDNPSILVEKCTPPPEGDPESAVTELQCVWHNLSYMKCTWLPGRNTSPDTNYTLYYWHSSLGKILQCEDIYREGQHIGCSFALTNLKDSSFEQHSVQIVVKDNAGKIRPSFNIVPLTSHVKPDPPHIKRLFFQNGNLYVQWKNPQNFYSRCLSYQVEVNNSQTETNDIFYVEEAKCQNSEFEGNLEGTICFMVPGVLPDTLNTVRIRVRTNKLCYEDDKLWSNWSQAMSIGENTDPTPKRENGRVPRPPDCPKCPAPEMLGGPSVFIFPPKPKDTLLIARTPEVTCVVVDLDPEDPEVQISWFVDGKQMQTAKTQPREEQFNGTYRVVSVLPIGHQDWLKGKQFTCKVNNKALPSPIERTISKARGQAHQPSVYVLPPSREELSKNTVSLTCLIKDFFPPDIDVEWQSNGQQEPESKYRTTPPQLDEDGSYFLYSKLSVDKSRWQRGDTFICAVMHEALHNHYTQESLSHSPGK
notes: The IL4R ECD precedes the IL13R ECD, followed by canine IgG-B Fc; also called canine IL4RECD-IL13RECD-Fc; SINK
With B2, in assay [1], the binding result is “binds”. Also, in assay [2], the “TF1 cell proliferation assay (CellTiter-Glo luminescence), IC50” value came out at 2 nM.
